Reference: IntAct's records for PubMed 16732284

B1: Carboxypeptidase Y-deficient protein 8 (Saccharomyces cerevisiae), P40335 (parent)
chain: MSIFFKPPIDIEILFDNEESRKHVDIATRSSNSSYKSMKESLPVYEDGESLGGIVTLRVRDSKKVDHLGIKVSVIGSIDMLKSHGSGNSSSKKVTSSTSSSSSNGSVDVRKNSVDQFLCQSYDLCPAGELQHSQSFPFLFRDLSKRYESYKGKNVDVAYYVKVTVMRKSTDISKIKRFWVYLYNSVTTAPNTLSANETKATTNDIAGGNYAADNASDNTQTKSTQGEAADVNQVLPISHSNNEPKPVRLDIGIENCLHIEFEYAKSQYSLKEVIVGRIYFLLTRLRIKHMELSLITRESSGLQTSNVMTDSTAIRYEIMDGSSVKGETIPIRLFLSGYDLTPNMSCNYFNVKNYLSLVIIDEDGRRYFKQSEITLYRTR

Variants of: B1
Conditions: with vps35_human VPS35, Q96QK1

effect of a mutation on the interaction | Variant
disrupting interaction | MSIFFKPPIDIEILFDNEESRKHVDIATRSSNSSYKSMKESLPVYEDGESLGGIVTLRVRDSKKVDHLGIKVSVIGSIDMLKSHGSGNSSSKKVTSSTSSSSSNGSVDVRKNSVDQFLCQSYDLCPAGELQHSQSFPFLFRDLSKRYESYKGKNVDVAYYVKVTVMRKSTDISKIKRFWVYLYNSVTTAPNTLSANETKATTNDIAGGNYAADNASDNTQTKSTQGEAADVNQVLPISHSNNEPKPVRLDIGIENCLHIEFEYAKSQYSLKEVIVGRIYFLLTRLRIKHMELSLITRESSGLQTSNVMTDSTAIRYEDDDGSSVKGETIPIRLFLSGYDLTPNMSCNYFNVKNYLSLVIIDEDGRRYFKQSEITLYRTR [I318D;M319D]
